Data on 1 substance can be found in paper PMC7325057.

For the data set, the system named is CC(=O)N(O)CCCC[C@H](N)C(=O)O. As to the kind of experiment: purified protein. The conditions noted are these: 2 mM citrate, 2 mM ATP, 15 mM MgCl2, pH 7.5, 37 °C, apparent.

The term Km denotes the concentration of substrate that gives half-maximal velocity. The kcat is the maximal rate divided by the concentration of active sites. By kcat/Km is commonly meant the second-order rate constant that governs catalysis at low substrate concentration. In the case of “hvKP IucA (Klebsiella pneumoniae subsp. pneumoniae)”, the Km is 790 ± 20 µM, the kcat came out at 0.85 ± 0.02 s⁻¹ and the kcat/Km stood at 1080 M⁻¹ s⁻¹.
